This is an account of results in patent publication US20240166748A1.

“And” between values parts separate entries of the source, which are not always exact repeats. Identical values can stand only once.

The chains are these.
B1: wild-type canine IgG.B Fc (SASA-tagged CH2-CH3) (Fc fusion, part only; not given: serum albumin single-domain tag, part only)
chain, part: APEMLGGPSVFIFPPKPKDTLLIARTPEVTCVVVDLDPEDPEVQISWFVDGKQMQTAKTQPREEQFNGTYRVVSVLPIGHQDWLKGKQFTCKVNNKALPSPIERTISKARGQAHQPSVYVLPPSREELSKNTVSLTCLIKDFFPPDIDVEWQSNGQQEPESKYRTTPPQLDEDGSYFLYSKLSVDKSRWQRGDTFICAVMHEALHNHYTQESLSHSPGK

The target of one assay is T1, canine FcRn (UniProtKB-E2R0L6 [FcRn] and UniProtKB-E2RN10 [canine beta-2-microglobulin]) (canine). In words: SPR Biacore 8K, pH 5.5, Fc captured via SASA tag on BSA, canine FcRn 200 nM.
Turning to B1, the equilibrium dissociation constant (Kd) is 1710 nM and 2660 nM; the off-rate constant (koff) was 0.288 s⁻¹ and 0.326 s⁻¹; the kon was 168000 M⁻¹ s⁻¹ and 123000 M⁻¹ s⁻¹.

In a further assay the target is T1, canine FcRn. The description is as above. The source holds these as a separate data set.
For the molecule “canine IgG.B Fc variant N434S (SASA-tagged CH2-CH3) (Fc fusion)”, the equilibrium dissociation constant (Kd) was 924 nM and 1050 nM; the off-rate constant (koff) is 0.207 s⁻¹ and 0.209 s⁻¹; the kon was 225000 M⁻¹ s⁻¹ and 199000 M⁻¹ s⁻¹.

With “canine IgG.B Fc variant T250Q (SASA-tagged CH2-CH3) (Fc fusion)”, the equilibrium dissociation constant (Kd) was 2590 nM and 2840 nM; the off-rate (koff) was 0.258 s⁻¹ and 0.268 s⁻¹; the kon is 99600 M⁻¹ s⁻¹ and 94300 M⁻¹ s⁻¹.

Take “canine IgG.B Fc variant L252Y (SASA-tagged CH2-CH3) (Fc fusion)”: the Kd was 98.7 nM and 114 nM; the koff is 0.0397 s⁻¹ and 0.041 s⁻¹; the on-rate (kon) was 402000 M⁻¹ s⁻¹ and 358000 M⁻¹ s⁻¹.

Regarding “canine IgG.B Fc variant E380A (SASA-tagged CH2-CH3) (Fc fusion)”, the equilibrium dissociation constant (Kd) was 1320 nM and 1570 nM; the dissociation rate constant (koff) was 0.223 s⁻¹ and 0.239 s⁻¹; the kon was 168000 M⁻¹ s⁻¹ and 152000 M⁻¹ s⁻¹.

As for “canine IgG.B Fc variant N434A (SASA-tagged CH2-CH3) (Fc fusion)”, the Kd was 573 nM and 629 nM; the off-rate (koff) is 0.156 s⁻¹ and 0.164 s⁻¹; the kon was 272000 M⁻¹ s⁻¹ and 261000 M⁻¹ s⁻¹.

On to “canine IgG.B Fc variant L252M (SASA-tagged CH2-CH3) (Fc fusion)”, for which the equilibrium dissociation constant (Kd) was 869 nM and 774 nM; the off-rate (koff) is 0.168 s⁻¹ and 0.169 s⁻¹; the kon was 193000 M⁻¹ s⁻¹ and 218000 M⁻¹ s⁻¹.

With “canine IgG.B Fc variant N434R (SASA-tagged CH2-CH3) (Fc fusion)”, the Kd was 107 nM and 159 nM; the koff was 0.0524 s⁻¹ and 0.0633 s⁻¹; the on-rate (kon) was 488000 M⁻¹ s⁻¹ and 399000 M⁻¹ s⁻¹.

In the case of “canine IgG.B Fc variant Q311V (SASA-tagged CH2-CH3) (Fc fusion)”, the Kd is 372 nM and 439 nM; the koff was 0.566 s⁻¹ and 0.696 s⁻¹; the kon is 1.52e+06 M⁻¹ s⁻¹ and 1.59e+06 M⁻¹ s⁻¹.

Take “canine IgG.B Fc variant D378V (SASA-tagged CH2-CH3) (Fc fusion)”: the Kd is 693 nM and 873 nM; the koff was 0.159 s⁻¹ and 0.16 s⁻¹; the on-rate (kon) was 229000 M⁻¹ s⁻¹ and 184000 M⁻¹ s⁻¹.

With “canine IgG.B Fc variant N434W (SASA-tagged CH2-CH3) (Fc fusion)”, the Kd was 40.4 nM and 75.7 nM.

Turning to “canine IgG.B Fc variant A254T (SASA-tagged CH2-CH3) (Fc fusion)”, the equilibrium dissociation constant (Kd) was 2290 nM and 1340 nM; the koff was 0.375 s⁻¹ and 0.433 s⁻¹; the kon was 163000 M⁻¹ s⁻¹ and 323000 M⁻¹ s⁻¹.

Turning to “canine IgG.B Fc variant N434Y (SASA-tagged CH2-CH3) (Fc fusion)”, the Kd is 15.9 nM, the off-rate constant (koff) stood at 0.00968 s⁻¹ and the association rate constant (kon) is 607000 M⁻¹ s⁻¹.

For “canine IgG.B Fc variant T250E (SASA-tagged CH2-CH3) (Fc fusion)”, the Kd is 2480 nM and 1660 nM; the koff was 0.284 s⁻¹ and 0.287 s⁻¹; the association rate constant (kon) is 114000 M⁻¹ s⁻¹ and 172000 M⁻¹ s⁻¹.

Consider B1, for which the equilibrium dissociation constant (Kd) was 8990 nM and 3110 nM; the koff was 0.347 s⁻¹ and 0.354 s⁻¹; the on-rate constant (kon) is 38700 M⁻¹ s⁻¹ and 114000 M⁻¹ s⁻¹.

Another assay deals with T1, canine FcRn. Described as above. This is another data set of the same source.
Take B1: the equilibrium dissociation constant (Kd) was 639 nM and 692 nM; the off-rate constant (koff) is 0.17 s⁻¹ and 0.171 s⁻¹; the kon is 267000 M⁻¹ s⁻¹ and 247000 M⁻¹ s⁻¹.

In the next assay the target is T1, canine FcRn. The description is as above. The source holds these as a separate data set.
Take B1: the Kd is 955 nM and 1310 nM; the koff is 0.181 s⁻¹ and 0.209 s⁻¹; the kon is 190000 M⁻¹ s⁻¹ and 159000 M⁻¹ s⁻¹.

For a further assay, the target named is T1, canine FcRn. The description is as above. The source holds these as a separate data set.
As to B1, the equilibrium dissociation constant (Kd) is 502 nM and 784 nM; the off-rate constant (koff) is 0.169 s⁻¹ and 0.207 s⁻¹; the on-rate constant (kon) is 336000 M⁻¹ s⁻¹ and 264000 M⁻¹ s⁻¹.

The next assay deals with T1, canine FcRn. In words: SPR Biacore 8K, pH 5.5, canine FcRn 400 nM; average of the 12 wild-type runs.
As for B1, the dissociation constant (Kd) was determined as 566 nM.

Another assay deals with T1, canine FcRn. In words: SPR Biacore 8K, pH 5.5, Fc captured via SASA tag on BSA, canine FcRn 400 nM.
For “canine IgG.B Fc variant T286A (SASA-tagged CH2-CH3) (Fc fusion)”, the Kd was 464 nM and 569 nM; the WT KD Avg/Variant KD was 1.22 and 0.99; the off-rate (koff) was 0.196 s⁻¹ and 0.304 s⁻¹; the kon was 422000 M⁻¹ s⁻¹ and 533000 M⁻¹ s⁻¹.

In the case of “canine IgG.B Fc variant T256A (SASA-tagged CH2-CH3) (Fc fusion)”, the dissociation constant (Kd) was 447 nM and 298 nM; the WT KD Avg/Variant KD is 1.27 and 1.9.

“canine IgG.B Fc variant E380A (SASA-tagged CH2-CH3) (Fc fusion)”: the Kd was 618 nM and 747 nM; the WT KD Avg/Variant KD was 0.76 and 0.92; the koff was 0.369 s⁻¹ and 0.18 s⁻¹; the on-rate (kon) is 598000 M⁻¹ s⁻¹ and 241000 M⁻¹ s⁻¹.

In the case of “canine IgG.B Fc variant P307A (SASA-tagged CH2-CH3) (Fc fusion)”, the dissociation constant (Kd) was 325 nM and 338 nM; the WT KD Avg/Variant KD was 1.74 and 1.67.

For the molecule “canine IgG.B Fc variant T250A (SASA-tagged CH2-CH3) (Fc fusion)”, the dissociation constant (Kd) is 335 nM and 328 nM; the WT KD Avg/Variant KD is 1.69 and 1.72.

In the case of “canine IgG.B Fc variant Q311A (SASA-tagged CH2-CH3) (Fc fusion)”, the Kd was 368 nM and 370 nM; the WT KD Avg/Variant KD was 1.54 and 1.53; the dissociation rate constant (koff) was 0.894 s⁻¹ and 0.496 s⁻¹; the kon is 2.43e+06 M⁻¹ s⁻¹ and 1.34e+06 M⁻¹ s⁻¹.

In the case of “canine IgG.B Fc variant I308A (SASA-tagged CH2-CH3) (Fc fusion)”, the Kd was 472 nM and 563 nM; the WT KD Avg/Variant KD was 1.2 and 1; the koff was 0.169 s⁻¹ and 0.194 s⁻¹; the kon was 357000 M⁻¹ s⁻¹ and 345000 M⁻¹ s⁻¹.

Consider “canine IgG.B Fc variant H433A (SASA-tagged CH2-CH3) (Fc fusion)”, for which the dissociation constant (Kd) was 266 nM and 359 nM; the WT KD Avg/Variant KD was 2.13 and 1.58; the koff is 0.229 s⁻¹ and 0.0997 s⁻¹.

Turning to “canine IgG.B Fc variant Y436A (SASA-tagged CH2-CH3) (Fc fusion)”, the Kd is 393 nM and 876 nM; the WT KD Avg/Variant KD was 1.44 and 0.65; the koff is 0.407 s⁻¹ and 0.213 s⁻¹.

Turning to “canine IgG.B Fc variant N434A (SASA-tagged CH2-CH3) (Fc fusion)”, the Kd is 457 nM and 494 nM; the WT KD Avg/Variant KD was 1.24 and 1.14; the koff was 0.237 s⁻¹ and 0.477 s⁻¹; the kon was 518000 M⁻¹ s⁻¹ and 966000 M⁻¹ s⁻¹.

On to “canine IgG.B Fc variant A254S (SASA-tagged CH2-CH3) (Fc fusion)”, for which the Kd is 340 nM and 317 nM; the WT KD Avg/Variant KD was 1.66 and 1.78.

Regarding “canine IgG.B Fc variant G309A (SASA-tagged CH2-CH3) (Fc fusion)”, the Kd was 245 nM and 294 nM; the WT KD Avg/Variant KD was 2.31 and 1.92.

Take “canine IgG.B Fc variant L252A (SASA-tagged CH2-CH3) (Fc fusion)”: the Kd was 292 nM and 240 nM; the WT KD Avg/Variant KD was 1.94 and 2.36.

Turning to “canine IgG.B Fc variant D378A (SASA-tagged CH2-CH3) (Fc fusion)”, the Kd was 673 nM and 592 nM; the WT KD Avg/Variant KD is 0.84 and 0.96; the off-rate constant (koff) was 0.183 s⁻¹ and 0.181 s⁻¹; the kon was 272000 M⁻¹ s⁻¹ and 306000 M⁻¹ s⁻¹.

For the molecule “canine IgG.B Fc variant K315A (SASA-tagged CH2-CH3) (Fc fusion)”, the dissociation constant Kd is 422 nM and 548 nM; the WT KD Avg/Variant KD is 1.34 and 1.03.

As for “canine IgG.B Fc variant M428A (SASA-tagged CH2-CH3) (Fc fusion)”, the Kd is 723 nM and 1670 nM; the WT KD Avg/Variant KD was 0.78 and 0.34; the kon was 234000 M⁻¹ s⁻¹ and 318000 M⁻¹ s⁻¹.

For “canine IgG.B Fc variant Q285A (SASA-tagged CH2-CH3) (Fc fusion)”, the Kd is 341 nM and 257 nM; the WT KD Avg/Variant KD is 1.66 and 2.2.

In a further assay the target is T1, canine FcRn. In words: SPR Biacore 8K, pH 5.5, Fc captured via SASA tag on BSA, canine FcRn 200 nM. The source holds these as a separate data set.
Consider B1, for which the Kd was 884 nM and 862 nM; the koff is 0.21 s⁻¹ and 0.218 s⁻¹; the on-rate (kon) is 237000 M⁻¹ s⁻¹ and 253000 M⁻¹ s⁻¹.

The next assay addresses T1, canine FcRn. Described as above. The source holds these as a separate data set.
Consider B1, for which the Kd was 2050 nM and 2990 nM; the koff is 0.31 s⁻¹ and 0.315 s⁻¹; the kon was 151000 M⁻¹ s⁻¹ and 105000 M⁻¹ s⁻¹.

For another assay, the target named is T1, canine FcRn. The assay is described as above. This is another data set of the same source.
As to B1, the Kd is 1560 nM and 754 nM; the koff is 0.179 s⁻¹ and 0.182 s⁻¹; the on-rate (kon) is 115000 M⁻¹ s⁻¹ and 242000 M⁻¹ s⁻¹.

In another assay the target is T1, canine FcRn. Put plainly: SPR Biacore 8K, pH 5.5, Fc captured via SASA tag on BSA, canine FcRn 100-800 nM.
Molecule “canine IgG.B Fc variant N434H (SASA-tagged CH2-CH3) (Fc fusion)” yielded a dissociation constant (Kd) of 247 nM, a koff of 0.102 s⁻¹ and a kon of 411000 M⁻¹ s⁻¹.

As to “canine IgG.B Fc variant L252Y (SASA-tagged CH2-CH3) (Fc fusion)”, the Kd stood at 173 nM, the koff turned out to be 0.0476 s⁻¹ and the on-rate (kon) turned out to be 275000 M⁻¹ s⁻¹.

The molecule “canine IgG.B Fc YTE variant (L252Y/A254T/T256E) (SASA-tagged CH2-CH3) (Fc fusion)” registered a Kd of 184 nM, a koff of 0.046 s⁻¹ and an on-rate constant (kon) of 250000 M⁻¹ s⁻¹.

“canine IgG.B Fc variant N434R (SASA-tagged CH2-CH3) (Fc fusion)” yielded a Kd of 182 nM, a koff of 0.0801 s⁻¹ and an on-rate constant (kon) of 440000 M⁻¹ s⁻¹.

In turn, “canine IgG.B Fc variant N434W (SASA-tagged CH2-CH3) (Fc fusion)” displayed a Kd of 101 nM, a koff of 0.045 s⁻¹ and a kon of 446000 M⁻¹ s⁻¹.

Regarding “canine IgG.B Fc variant N434Y (SASA-tagged CH2-CH3) (Fc fusion)”, the Kd stood at 29.1 nM, the koff was 0.0151 s⁻¹ and the on-rate constant (kon) was found to be 520000 M⁻¹ s⁻¹.

As to B1, the equilibrium dissociation constant (Kd) worked out at 3150 nM, the koff came to 0.527 s⁻¹ and the kon was found to be 168000 M⁻¹ s⁻¹.
